Laboratory results from patent publication US20190382474A1 (SURFACE ONCOLOGY, published 2019).

T1: recombinant human IL-27 (human, UniProt Q14213 21-229; Q8NEV9 29-243)
T1 construct: Bought from R&D Systems (Cat. 2526-IL); also called hIL-27; rhIL-27
T1 sequence 1: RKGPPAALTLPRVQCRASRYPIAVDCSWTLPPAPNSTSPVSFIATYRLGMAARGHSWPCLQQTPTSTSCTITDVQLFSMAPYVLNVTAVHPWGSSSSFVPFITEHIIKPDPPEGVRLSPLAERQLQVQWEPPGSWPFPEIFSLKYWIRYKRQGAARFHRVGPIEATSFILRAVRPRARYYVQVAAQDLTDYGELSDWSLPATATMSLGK
T1 sequence 2: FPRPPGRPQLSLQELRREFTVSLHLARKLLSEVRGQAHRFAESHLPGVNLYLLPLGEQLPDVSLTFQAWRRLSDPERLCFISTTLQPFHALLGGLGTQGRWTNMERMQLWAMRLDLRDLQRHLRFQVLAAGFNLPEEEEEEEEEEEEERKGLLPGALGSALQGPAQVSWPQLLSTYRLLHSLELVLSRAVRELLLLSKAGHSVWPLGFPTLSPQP

T2: recombinant mouse IL-27 (mouse, UniProt O35228 19-228; Q8K3I6 29-234, limits assumed)
T2 construct: also called rodent recombinant IL-27
T2 sequence (looked up) 1: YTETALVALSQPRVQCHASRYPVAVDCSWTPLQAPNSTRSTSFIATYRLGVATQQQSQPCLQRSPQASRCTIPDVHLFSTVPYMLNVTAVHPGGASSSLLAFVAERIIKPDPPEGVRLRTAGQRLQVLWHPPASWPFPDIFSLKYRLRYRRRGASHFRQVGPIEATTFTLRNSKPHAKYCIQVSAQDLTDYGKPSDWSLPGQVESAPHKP
T2 sequence (looked up) 2: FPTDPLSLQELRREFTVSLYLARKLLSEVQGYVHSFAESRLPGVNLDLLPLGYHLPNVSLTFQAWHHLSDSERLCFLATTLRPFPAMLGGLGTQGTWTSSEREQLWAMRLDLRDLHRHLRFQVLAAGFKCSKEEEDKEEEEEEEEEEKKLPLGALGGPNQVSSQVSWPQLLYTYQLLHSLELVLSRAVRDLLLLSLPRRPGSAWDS


What was measured:
recombinant human IL-27 [1] = target: T1, recombinant human IL-27; assay: SPR (BIACORE 2000) as the paragraph says; values in FIG. 9
recombinant mouse IL-27 = target: T2, recombinant mouse IL-27; assay: column 'Affinity mIL-27 (M)'; method not given
recombinant human IL-27 [2] = target: T1, recombinant human IL-27; assay: column 'Affinity hIL-27 (M)', property (i); method not given, paragraph 885 names SPR (BIACORE 2000)
recombinant human IL-27 [3] = target: T1, recombinant human IL-27; assay: cell-based or functional assay
recombinant human IL-27 [4] = target: T1, recombinant human IL-27; assay: SPR single cycle kinetics, 1:1 model
Procedure: The antibodies were further characterized by surface plasmon resonance (SPR). Kinetic experiments were performed on a Biacore T200 (GE Healthcare, Uppsala, Sweden). All experiments were run at 25° C. with HBS-P+ running buffer (pH 7.4) (GE Healthcare, Little Chalfont, UK) using hIL-27 (R&D Systems, Abingdon, UK). Human IL-27 (hIL-27) antigen was captured on a CM5 chip to ˜16 RU. Immobilization was carried out at a protein concentration of 1 μg/mL in 10 mM acetate buffer pH 5.0. A three point, three-fold dilution range from 3.3 nM to 30 nM of antibody diluted in HBS-P+ buffer without regeneration between each concentration was used. The association phase for the three injections of increasing concentrations of antibody was monitored for 75 seconds each time and a single dissociation phase was measured for 250 seconds following the last injection of antibody. Regeneration of the hIL-27 surface was conducted using a single injection of 2M MgCl₂ for 120 s. Multiple repeats (n=4) of the chimeric antibody were performed throughout the assay to check the stability of the surface and analyte over the kinetic cycles.

recombinant human IL-27 [5] = target: T1, recombinant human IL-27; assay: SPR (Biacore T200), hIL-27 on CM5 chip, single cycle kinetics

| Binder | Kd (recombinant human IL-27 [1]) | Kd (recombinant human IL-27 [2]) | Kd (recombinant mouse IL-27) | binding result (recombinant human IL-27 [5]) | further results |
| --- | --- | --- | --- | --- | --- |
| SRF410 (antibody, V domains shown, also called SRF410-A; SRF410-B) VH: QVQLVQSGAEVKKPGSSVKVSCKASGGTFSAYAISWVRQAPGQGLEWMGGIIPIFGTANYAQKFQGRVTITADESTSTAYMELSSLRSEDTAVYYCARSYYSSRWHYYYYMDVWGKGTTVTVSS VL: DIQMTQSPSSVSASVGDRVTITCRASQGISSWLAWYQQKPGKAPKLLIYAASNLQSGVPSRFSGSGSGTDFTLTISSLQPEDFATYYCQQADDLPLTFGGGTKVEIK | ≤ 15 nM | 0.39 nM | 5.81 nM | – | – |
| SRF381 (antibody, V domains shown, also called SRF381-A; SRF381-B) VH: EVQLVESGGGLVKPGGSLRLSCAASGFTFRSYGMNWVRQAPGKGLEWVSSISSSSSYIYYADSVKGRFTISRDNAKNSLYLQMNSLRAEDTAVYYCARDGGRTSYTATAHNWFDPWGQGTLVTVSS VL: not shown | – | 0.0028 nM | 0.456 nM | – | IC50 of inhibition of phosphorylation of STAT1 in HUT-78 cells (recombinant human IL-27 [3]): 0.08 µg/mL; IC50 of inhibition of phosphorylation of STAT1 in U937 cells (recombinant human IL-27 [3]): 0.081 µg/mL; IC50 of inhibition of phosphorylation of STAT1 in pooled human PBMCs (recombinant human IL-27 [3]): 0.141 µg/mL |
| Ab7.6 (antibody, human IgG1, kappa, V domains shown, human IgG1/kappa) VH: EVKLVESGGGLVQPGGSLRLSCAASGFTFTSYSMSWVRQAPGKGLEWVAYISYDGGSAYYPDTVKGRFTISRDNSKKTLYLQMSSLKSEDTAMYYCARHGDYDDDDAMDYWGQGTSVTVSS VL: DIQMTQSPSSLSASVGDRVTITCRASENIYSYLAWYQQKPGKAPKLLVYNAETLTEGVPSRFSGSGSGTDFTLTISSLQPEDFATYYCQHHYGTPLTFGQGTKLEIKR | – | – | – | – | binding result (recombinant human IL-27 [4]): binds |
| Ab7.7 (antibody, human IgG1, kappa, V domains shown, human IgG1/kappa; also called Ab7-VL4 humanized variant) VH: EVKLVESGGGLVQPGGSLRLSCAASGFTFTSYSMSWVRQAPGKGLEWVAYISYDGGSAYYPDTVKGRFTISRDNSKKTLYLQMSSLKSEDTAMYYCARHGDYDDDDAMDYWGQGTSVTVSS VL: DIQMTQSPSSLSASVGDRVTITCRASENIYSYLNWYQQKPGKAPKLLVYNAETLTEGVPSRFSGSGSGTDFTLTISSLQPEDFATYYCQHHYGTPLTFGQGTKLEIKR | – | – | – | no binding (tested: 3.3 nM to 30 nM of antibody) | – |
| Ab7.15 (antibody, human IgG1, kappa, V domains shown, human IgG1/kappa; also called Ab7-VL4 humanized variant) VH: EVKLVESGGGLVQPGGSLRLSCAASGFTFTSYSMSWVRQAPGKGLEWVAYISYDGGSAYYPDTVKGRFTISRDNSKKTLYLQMNSLRAEDTAVYYCARHGDYDDDDAMDYWGQGTLVTVSS VL: DIQMTQSPSSLSASVGDRVTITCRASENIYSYLNWYQQKPGKAPKLLVYNAETLTEGVPSRFSGSGSGTDFTLTISSLQPEDFATYYCQHHYGTPLTFGQGTKLEIKR | – | – | – | no binding (tested: 3.3 nM to 30 nM of antibody) | – |
| Ab7.19 (antibody, human IgG1, kappa, V domains shown, human IgG1/kappa; also called Ab7-VL4 humanized variant) VH: EVQLVESGGGLVQPGGSLRLSCAASGFTFTSYSMSWVRQAPGKGLEWVAYISYDGGSAYYPDTVKGRFTISRDNSKNTLYLQMNSLRAEDTAVYYCARHGDYDDDDAMDYWGQGTLVTVSS VL: DIQMTQSPSSLSASVGDRVTITCRASENIYSYLNWYQQKPGKAPKLLVYNAETLTEGVPSRFSGSGSGTDFTLTISSLQPEDFATYYCQHHYGTPLTFGQGTKLEIKR | – | – | – | no binding (tested: 3.3 nM to 30 nM of antibody) | – |
| Ab7.11 (antibody, human IgG1, kappa, V domains shown, human IgG1/kappa; also called Ab7-VL4 humanized variant) VH: EVQLVESGGGLVQPGGSLRLSCAASGFTFTSYSMSWVRQAPGKGLEWVAYISYDGGSAYYPDTVKGRFTISRDNSKNTLYLQMSSLKSEDTAMYYCARHGDYDDDDAMDYWGQGTLVTVSS VL: DIQMTQSPSSLSASVGDRVTITCRASENIYSYLNWYQQKPGKAPKLLVYNAETLTEGVPSRFSGSGSGTDFTLTISSLQPEDFATYYCQHHYGTPLTFGQGTKLEIKR | – | – | – | no binding (tested: 3.3 nM to 30 nM of antibody) | – |
| Ab7.23 (antibody, human IgG1, kappa, V domains shown, human IgG1/kappa; also called Ab7-VL4 humanized variant) VH: EVQLVESGGGLVQPGGSLRLSCAASGFTFTSYSMSWVRQAPGKGLEWVSYISYDGGSAYYPDTVKGRFTISRDNSKNTLYLQMNSLRAEDTAVYYCARHGDYDDDDAMDYWGQGTLVTVSS VL: DIQMTQSPSSLSASVGDRVTITCRASENIYSYLNWYQQKPGKAPKLLVYNAETLTEGVPSRFSGSGSGTDFTLTISSLQPEDFATYYCQHHYGTPLTFGQGTKLEIKR | – | – | – | no binding (tested: 3.3 nM to 30 nM of antibody) | – |

Further lines, with some results ahead:

| Kd (recombinant human IL-27 [1]) | Kd (recombinant human IL-27 [2]) | Kd (recombinant mouse IL-27) | Binder | binding result (recombinant human IL-27 [5]) | further results |
| --- | --- | --- | --- | --- | --- |
| ≤ 15 nM | 11.5 nM | – | SRF535 (antibody, V domains shown, also called SRF535-A; SRF535-B) VH: EVQLVESGGGLVQPGGSLRLSCAASGFTFSSYGMSWVRQAPGKGLEWVANIKQDGSEKYYVDSVKGRFTISRDNAKNSLYLQMNSLRAEDTAVYYCARDAPWDIYDYYMDVWGKGTTVTVSS VL: not shown | – | binding result (recombinant mouse IL-27): no binding |
| ≤ 15 nM | 0.1 nM | 5.02 nM | SRF405 (antibody, V domains shown, also called SRF405-A; SRF405-B) VH: QVQLVQSGAEVKKPGSSVKVSCKASGGTFVGYAISWVRQAPGQGLEWMGGIIPIFGIANYAQKFQGRVTITADESTSTAYMELSSLRSEDTAVYYCARSYYSSRWHYYYYMDVWGKGTTVTVSS VL: DIQMTQSPSSVSASVGDRVTITCRASQGISSWLAWYQQKPGKAPKLLIYAASNLQSGVPSRFSGSGSGTDFTLTISSLQPEDFATYYCQQADDLPLTFGGGTKVEIK | – | – |
| ≤ 15 nM | 0.43 nM | 0.546 nM | SRF411 (antibody, V domains shown, also called SRF411-A; SRF411-B) VH: QVQLVQSGAEVKKPGSSVKVSCKASGGTFESYTISWVRQAPGQGLEWMGGIAPIFGTAHYAQKFQGRVTITADESTSTAYMELSSLRSEDTAVYYCARSYYSSRWHYYYYMDVWGKGTTVTVSS VL: DIQMTQSPSSVSASVGDRVTITCRASQGISSWLAWYQQKPGKAPKLLIYAASNLQSGVPSRFSGSGSGTDFTLTISSLQPEDFATYYCQQADDLPLTFGGGTKVEIK | – | – |
| ≤ 15 nM | 0.0034 nM | 1.75 nM | SRF386 (antibody, V domains shown, also called SRF386-A; SRF386-B) VH: EVQLVESGGGLVKPGGSLRLSCAASGFTFASYGMNWVRQAPGKGLEWVSSISSSSSYIYYADSVKGRFTISRDNAKNSLYLQMNSLRAEDTAVYYCARDGGRTSYTATAHNWFDPWGQGTLVTVSS VL: not shown | – | – |
| ≤ 15 nM | 0.0075 nM | 2.5 nM | SRF382 (antibody, V domains shown, also called SRF382-A; SRF382-B) VH: EVQLVESGGGLVKPGGSLRLSCAASGFTFSRTGMNWVRQAPGKGLEWVSSISSSSSYIYYADSVKGRFTISRDNAKNSLYLQMNSLRAEDTAVYYCARDGGRTSYTATAHNWFDPWGQGTLVTVSS VL: not shown | – | – |
| ≤ 15 nM | 0.0024 nM | 0.405 nM | SRF384 (antibody, V domains shown, also called SRF384-A; SRF384-B) VH: EVQLVESGGGLVKPGGSLRLSCAASGFTFSRYGMNWVRQAPGKGLEWVSSISSSSAYILYADSVKGRFTISRDNAKNSLYLQMNSLRAEDTAVYYCARDGGRTSYTATAHNWFDPWGQGTLVTVSS VL: not shown | – | – |
| – | 0.026 nM | 62.1 nM | SRF543 (antibody, V domains shown, also called SRF543-A; SRF543-B) VH: QVQLQQWGAGLLKPSETLSLTCAVYGGSFSDYEWSWIRQPPGKGLEWIGEIDWSGITNYNPSLKSRVTISVDTSKNQFSLKLSSVTAADTAVYYCARLPMYYYDSSVSTGSVDVWGQGTMVTVSS VL: not shown | – | – |
| ≤ 15 nM | 8.93 nM | 182 nM | SRF538 (antibody, V domains shown, also called SRF538-A; SRF538-B) VH: QVQLVESGGGVVQPGRSLRLSCAASGFTFSSYGMHWVRQAPGKGLEWVAVIWYDGSNKYYADSVKGRFTISRDNSKNTLYLQMNSLRAEDTAVYYCARGAPEYVDVWGQGTMVTVSS VL: not shown | – | – |
